In paper PMC3391682, “Structure of the Glycosyltransferase EryCIII in Complex with its Activating P450 Homologue EryCII” (Journal of Molecular Biology, 2012):

Biological target: T1, glycosyltransferase EryCIII (UniProt A4F7P3 1-421)
T1 construct: EryCIII, glycosyltransferase that attaches TDP-D-desosamine to 3-alpha-mycarosylerythronolide B in erythromycin D biosynthesis; printed mass 48.1 kDa (47,961 Da measured, loss of the N-terminal methionine); Se-Met-labelled protein was used for phasing; also called GT EryCIII; source: E. coli BL21 (DE3) codon plus RP, co-expressed with the S. coelicolor chaperonins GroEL1, GroES and GroEL2, …
T1 sequence (looked up): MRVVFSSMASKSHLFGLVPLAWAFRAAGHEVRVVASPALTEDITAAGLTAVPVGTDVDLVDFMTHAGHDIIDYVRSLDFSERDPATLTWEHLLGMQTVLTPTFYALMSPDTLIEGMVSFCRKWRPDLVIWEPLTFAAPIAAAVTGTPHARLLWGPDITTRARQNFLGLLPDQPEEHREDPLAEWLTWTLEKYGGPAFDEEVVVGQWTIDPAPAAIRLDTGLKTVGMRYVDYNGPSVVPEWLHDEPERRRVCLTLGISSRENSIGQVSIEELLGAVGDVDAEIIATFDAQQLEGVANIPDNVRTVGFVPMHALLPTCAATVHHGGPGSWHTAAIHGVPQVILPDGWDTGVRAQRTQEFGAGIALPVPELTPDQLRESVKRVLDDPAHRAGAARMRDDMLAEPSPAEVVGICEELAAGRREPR
Experiment: AUC; sedimentation velocity of the co-expressed, co-purified EryCIII·EryCII complex in 2 mM DTT, 293 K, 50,000 r.p.m.; c(S) and c(M) analysis, taken together with band intensities on a denaturing polyacrylamide gel
Details: both partners purified

B1: EryCII, activating P450 homologue (auxiliary protein) of EryCIII (natural protein)
chain: MTTTDRAGLGRQLQMIRGLHWGYGSNGDPYPMLLCGHDDDPQRRYRSMRESGVRRSRTETWVVADHATARQVLDDPAFTRATGRTPEWMRAAGAPPAEWAQPFRDVHAASWEGEVPDVGELAESFAGLLPGAGARLDLVGDFAWQVPVQGMTAVLGAAGVLRGAAWDARVSLDAQLSPQQLAVTEAAVAALPADPALRALFAGAEMTANTVVDAVLAVSAEPGLAERIADDPAAAQRTVAEVLRLHPALHLERRTATAEVRLGEHVIGEGEEVVVVVAAANRDPEVFAEPDRLDVDRPDADRALSAHRGHPGRLEELVTALATAALRAAAKALPGLTPSGPVVRRRRSPVLRGTNRCPVEL
notes: printed mass 40.7 kDa; also called helper protein
stoichiometry N: 1
